Assays:
GFAT1 [1] = target: GFAT1 (UniProt Q06210); experiment: His-TAB1 pull-down after JNK reaction; details: reference: His-TAB1 WT treated with JNK; sites S438
GFAT1 [2] = target: GFAT1 (UniProt Q06210); experiment: GST pull-down after in vitro kinase reaction; details: sites S438
GFAT1 [3] = target: GFAT1 (UniProt Q06210); experiment: co-immunoprecipitation of TAB1 mutants; details: reference: wild type; sites S438

Substance: TAB1 (from UniProt Q15750) His-TAB1-S438A treated with JNK
- binding against the reference (GFAT1 [1]): weaker

Substance: TAB1 (from UniProt Q15750) His-TAB1-S438A treated with p38α
- binding against the reference (GFAT1 [2]; reference: His-TAB1 WT treated with p38α): weaker

Substance: TAB1 (from UniProt Q15750) His-TAB1-S438A treated with JNK1
- binding against the reference (GFAT1 [2]; reference: His-TAB1 WT treated with JNK1): weaker

Substance: TAB1 (from UniProt Q15750) S438A
- binding against the reference (GFAT1 [3]): weaker

— article PMC9363421
